Molecular target: T1, F-P564 peptide
T1 chain: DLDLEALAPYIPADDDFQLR

B1: HIF-1alpha specific prolyl-4-hydroxylase-2 (PHD-2) (protein)
chain: MANDSGGPGGPSPSERDRQYCELCGKMENLLRCSRCRSSFYCCKEHQRQDWKKHKLVCQGSEGALGHGVGPHQHSGPAPPAAVPPPRAGAREPRKAAARRDNASGDAAKGKVKAKPPADPAAAASPCRAAAGGQGSAVAAEAEPGKEEPPARSSLFQEKANLYPPSNTPGDALSPGGGLRPNGQTKPLPALKLALEYIVPCMNKHGICVVDDFLGKETGQQIGDEVRALHDTGKFTDGQLVSQKSDSSKDIRGDKITWIEGKEPGCETIGLLMSSMDDLIRHCNGKLGSYKINGRTKAMVACYPGNGTGYVRHVDNPNGDGRCVTCIYYLNKDWDAKVSGGILRIFPEGKAQFADIEPKFDRLLFFWSDRRNPHEVQPAYATRYAITVWYFDADERARAKVKYLTGEKGVRVELNKPSDSVGKDVF
- prolyl hydroxylation of F-P564 peptide, mass analysis: the 564th proline group in F-P564 was hydroxylated by the addition of prolyl hydroxylase
